Source: the domain aggregation screens of Martell et al. (2025)

test: soluble fraction after stress (log2 fold change); higher = more stays soluble; pooled small domains, quantitative proteomics; details: stress: 75 degC
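Note: 20 min heating vs room temperature control held 20 min.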

Sequence | soluble fraction (log2)
HMKQLLHLVIGGELKDVRGIEFEDLSKIDFVGAFPSYKAAYDAWKNAAQRTVDNAEMRYFILHAHR | -1.92
HMKQLRVLGIVKAGSILKNSDGSIEFVIEDSGKSLLVKYKGVIPDIFKDGVEAVVEGDLRGSVFNADKLF | -1.14
HMKQMNETQQKAFEIYLDSATFETDYKPISEEQLAAKLDALGLKGSSSSINRWKKDFNWAQALQNKVTLAM | -0.166
HMKQQNFADLAGRFVFNADNEVVFNFGKHKNVPVATVLKNEPGYYGWMMGGDFPLFTKKILKQIKEA | -1.05
HMKQTFGAMLAALRKEKGMTQLELAEQMGVTDKAVSKWERDLSFPDVTSLPRLAEILEVSVDELMQ | -0.146
HMKQVNVVSVIGQSEANAKTTLTGLGLKVNVAYEEDTSKADGIVLKQSLEGGKTVNEGTTITITVNKIA | 0.579
HMKQVSDTGAIDAAIREVMDANPDKVAEYRSGKDKLFGFFVGQIMRAMAGKAAPVVVNDRLKALLD | 0.123
HMKQVTVGGTINAGGARIYADSYGNGGGRQTFGSDPIYTVLQERNGYILTRWHKLSSGYTGWFKKSDVSA | -0.917
HMKQYSFEISKADFKKISENFNFKIINEINDSLIISLNDKNINLDELLIFFVERKIKVRSIENI | -3.69
HMKREELTQQTKQNLREAFWSLYIQKPIEKITVKEITDIAGYNRGTFYLYYKDTYDLLAKIE | -0.279
HMKRLLLPGDLAGVRRHLLDRENSFHILRVLRLARGSTIEAMDDAGNRFSATLAGVKAGRALFDLAAKI | -1.75
HMKRLPAQMGGGDGVLRVPGLNNFVYVTIADKTLPAFNNRVPPKKGLRIWVGYSPEEPNLFQVLSTRTD | -1.83
HMKRLPMRKIRDVLRLSADGLSTRKIGVSLTIGRTTVQAYLDRAAEVDLSWPLPPEMSDTDLERLIYPR | -3.14
HMKRNLVSVLDHIVGIGPKRRQSLRTHFGSLEKIKEASVEELAAAPGMNRTSAEAVRHFFDAQQELRGK | 0.727
HMKRRSVIVSVVRAQVRQSADEAAAVVFEAEKNVSLDYLETMPGGWVKVRHRDGQTGFVRVNQIWG | -1.59
HMKRSFGYIRLLPSKRYQASYIGPDSQRHAAPETFTRKMDAEGWLSAERRLIEWDQWTSPEQRAAQARLD | -0.663
HMKRTRLEEAMDWLREQLNDGPVAYATLKDEAPKAEITLSTLRAAGEALRVDKQKKGVQWGGWTWSLPR | 0.00234
HMKRVTRQRTEILRVIDESERPLGPQEILQAGREAIPSLSIATIYRTLRDLLAEELIKTVALPGDSPRYES | -1.33
HMKSARDDILSALDKAGEPLSMKDIAELSGRKLSTLRAQMTRLVAEGAVQATAAAHSPDRKYRK | -0.319
HMKSARQIAILEIIAEKSIETQEDLADALRLRGFQVTQATVSRDIKELRLVKALAPDGTYRYATAEK | -1.57
HMKSEIRKKNSQIILDAAEHEFSVHGYRGTSVQMIADRSGLPKANLHYYYKSKSALYGAVLDRIL | 0.215
HMKSERHALILSLIEKKNVETQEDLAELLKERGVAVTQATVSRDIKELRLIKVLSETGGYKYATVDKAE | -0.908
HMKSIETVAELVAELKKLNPNAKISNIDGTYTLEEDINTITLPKDFKYDNNLGINNKIDDFTPYISLDVKA | 0.662
HMKSIRIPFILTEGPNSQKITIDIDSDEEFRIGDVFDEDDKLWSINQILISGDRKAKMAIASEVTSISALR | -2.01

Sequence | soluble fraction (log2)
HMKSKYLIKIEGDFDEKDLYKYLINVSIVNHTKNNGFTEVEFYNDNYSLQQNFLKSMLNDGIIITEFKKVE | -0.49
HMKSLHSEVTDRIRQLIVESHLQPGQRVPELEISRDLGVSRTPIREALKVLAAEGLVELLPLRGAMVK | -0.0555
HMKSLLTARQLEVFEIARNKGYWTTPRKISLVELSKLLDISKSTLSVLLHSIEGKVMEEFYEEIRQ | -2.22
HMKSNIIPLSLKKPQRLDIFLTNYFVDLSRTQIKKMITDGNIKVNDLIAKPSLKLIGDEIIFYTLPK | -1.46
HMKSNNPLDHVRVKQRGASWAYYFEKAKVDGKRRRGEGGGYATEQDARMAGVEAYNAYIGGGAK | -0.172
HMKSPVKLILRGSIYHIKISAVVNGQRIFVRESSHTTDKREAEQYANKRFAQLVEETEFRTN | -1.18
HMKSQSIFNVKKGDTLSHIAVHVLKKNKQKVTPEAINKMVSNIAFRNKIKNPDLIFPGQKLVLEY | -0.169
HMKSQVVAYSDFVKAVNQKQINEVQIQGDKIRAINKAGEEITVTWLQNDQKLMDDLLDNNVKTIFLE | 0.0189
HMKSSYSGNFKQNVVEYMHNNHLSATETANHFKLGGGSVVLRWERIYYEEGPQALYEERRGR | -1.26
HMKSYAQIAEILSGQQPNTSRKEGSNLAVHADWIDALIAKYGTALRPEEANEVVKKEIGIVFSHVLEN | -0.412
HMKSYQKITPATEGNYLTTYREGDDIKTYEGVKAMYTPADFDASSVREITPEEHQSYQKAKEQALQEETEQ | -0.204
HMKTALDEAKDFLNGALSKGHRPASDVVDEAKEASISEKTLKRAKLAIGIITRKEGFGSEGKWVWELPAR | -0.375
HMKTATAKIKATPFGWLRVRETPSLNGAEIARVNSGESYKILERGEGWIKIKVSDTVEGWVSEAYVELS | -0.244
HMKTEKYIQVISGTVNVRSGPGTSYAEIAKIDASQIYVVTAKEGEWLKISLANGTIGYVAGWLVKEVTG | -1.47
HMKTEVNITPGIIDWIERYVQTDKISSSMTEDFQHWKSGTKKPTFNQVEAFSKAINVPLGYFFLKTPPAE | -0.725
HMKTFSFEILADTVKKQRKAKGMTQAELSEATGINRSMIGQMENMTFKPSIEQLEALSQALDFNVIDLYTE | -0.325
HMKTGHLPVTVIIDGRIISDNLYKTGLSNNWLADQLRKNSIKSSEDVFFAYLNPERKFIYQLRSNS | -1.49
HMKTGNIVMVNLGWKGKYYSIKMFFPQVSKPSRKDVQDQIEKIYPGGKLYTFVVSNYEPGEPMLHA | -1.41
HMKTITLDEAQEIALAEVDGKVTRAVEETDDGRSYYEFDIITNDQKHELEVDASSGKITKNEIDEDYVPS | 0.0581
HMKTITVEDEQAGKRLDKALAELFPHYSRSALEKLIKEGQVLVNKSFVKSKYSLKLGDEISLQFEQL | -0.325
HMKTKILAPIPGSIMVVDVKVGDTVKVGDRLVQLEAMKMENNITSEKAGKITAVLVTAGQKVLQNEVMIEL | -1.01
HMKTLLSMNIKNLRKKKNMTLEELAEKVGTSKQTIQRYESGKISNIPSDKIELLAKYLDTTPAKLMGW | -0.139
HMKTLNKRQQDIINLAREEGFVTVEHLSEYFKVTQQTIRRDLGYLSENLYLARTYGGAFFQS | -0.854
HMKTTKLEELDMQKEFILKNGKYGFGVYIGGKYIGLTDIGTVNSFKDSLQLPVVSLSDIDFKTFAEKF | -1.27

Sequence | soluble fraction (log2)
HMKTYEILFDILSRESDYISGEKLAQELGISRTSIWKAIQHLEKEGVHIESVKNKGYKLLSGDLLIAEKI | -1.77
HMKTYGGDNSLHKFDEHHSWMVAKYGPVVKQTINGETKWLKVKKDLTLAQVKKMKLEDVLLPKSQT | -0.534
HMKVDRLVSMILILLEQQRVGAQELADRFEVSVRTIYRDMEAINQAGIPVRSTSGVGGGFEIM | -0.471
HMKVFREERLQLILEKLIHEKKVVVSDLVKYFNVSPSLIRMDLAELEKRDLILRTHGGAILPD | -2.9
HMKVKEYKLVDWISTFTKNEGYGISQKAAMLLAEFLGDDLSRIANEIEKLKLLVEKGTTINDVHIEENI | -1.09
HMKVLFLESIEGSASMGEIKDVANGYARNFLFPNGFAVPATPKNLKNVEELQAKELEIQTERDNWAA | -0.016
HMKVSDLIGMLGRVTGELAPTGIVLVGNKTWTAISEDASVIASGEQVQVRSVAGLILTVSHQVD | -2.32
HMKVSVPDIMDNSSLRQAEAKLRALGFRVTEPEYISGEKDWVYSVTYKGRTLNAGDKVPHEALLTLHVGNG | -0.163
HMKVTADVVVADRLKAWIISNNLKPGDRLPTEQKLSEELGVARHTLREGIKRLSQLGIIGSRTGSGMYVKN | -1.06
HMKWIEILKSKDGNYALLQDEKDTQFVVASGYNPDAAEDQKWGHGSYFIYWNNKENKAEMLMNAIDLFRYR | -2.21
HMKYEFEFPYWSNKEAKHMIVTINYPNGTRATASIQDNDGSNPDYKRIMEEFGEEQIDANTEEGLKRR | -0.0803
HMKYEGEDEYYASLVTEKIAAIGTVTEESEDAIKEARAAYDALTSAQKKLVTNYDVLDEAEK | -0.144
HMKYGPSTVATLKVARLGEMGAFLDAETGDTSDDILLHKTQQTAPVKVGDEVEVFLYLDPKRRLTASMRV | -0.118
HMKYGPSTVAVLTVVRESEMGAFLDAETGRTNDDILLHKTQQTEPVHIGDQVKVFLYLDPKHRLTASMRVP | -1.03
HMKYNETEFKNLVAKLYNGEIEIVGKFTGLSYPILVKDKYGIMLSQKANLILNYRPTINIALNKTEYAMN | -0.289
HMKYSELLLEIILQSKEHPTAEQIFIEAKKRNPKIVQATVYNNLKNLLAQGRVIRISNPGQPDRYDNT | -1.83
HMKYVDYYATLGVARDADLATITKAYRKLARQTHPDLNQGADNEARFKAAAEAYATLKHPEKRAAYDELGQ | 0.0183
HMKYWTISDLYSKLEEDQVELGAFSEDSNKVTVLDRQGYEHVIKILSSDVPALTELFRKKKVRFAVAG | -1.3
HMKYYIYQGVGASGELTKIAEVTDQKTYTVTGLQAKTTYRFAVSSYNGLRESTKSNIVTVTT | -0.134
HMLAAAVVVYATDKVNVRAEASETADVIGQLEAGSQTTRLEDKDGWSRIDYSNGTQGYMKSEFLSTEAPT | 0.347
HMLADEPTGALDSKTSVQIMALLTEIAQDRLVIMVTHNPELADEYATRIVNLRDGVISDDSDPFNP | -0.0933
HMLAEEAFNKQAATAGYVYRDGSYHPAASVAQYDAMPRNYRTNTMAQELSRSQVESQLQQSQ | 0.752
